This note sets out measurements from US8987424B2, “CA6 antigen-specific cytotoxic conjugate and methods of using the same” (ImmunoGen, Inc., priority 2003, dated 2015).

For one series, the system named is KB tumor xenografts. The series can be described thus: Subcutaneous KB tumor xenograft efficacy study. It is filed as in vivo, SCID mice. On the procedure:
Tumor cells were inoculated on day 0, and the first treatment was given on day 6. Immunoconjugate treatments continued daily for a total of 5 doses. PBS control animals were euthanized once tumor volumes exceeded 1500 mm^3. The conjugate was given at a dose of 150 or 225 μg/kg DM1, corresponding to antibody concentrations of 5.7 and 8.5 mg/kg respectively. The body weights (FIG. 25B) of the mice were monitored during the course of the study.
A subcutaneous model of the human cervical carcinoma cell-line, KB, was developed. KB cells were grown in vitro, collected, and 5×10^6 cells in a 100 μL of serum free medium were injected under the right shoulder of each mouse and allowed to grow for 6 days to an average tumor volume of 144±125 mm^3 at which time drug treatment was initiated. Mice were given either PBS, conjugate at 150 μg/kg DM1, or conjugate at 225 μg/kg DM1 (2 mice per group) intravenously every day for 5 days. Toxic responses were monitored daily during the treatment. Tumor volumes (FIG. 25A) and corresponding body weights (FIG. 25B) were monitored throughout the study.

In the next series the test system is OVCAR5 cells. The series can be described thus: MTT cell viability assay. As to conditions: highest conjugate concentration (32 nM). In kind it is cell-based, human. On the procedure:
(§1) In the MTT assay, cells were seeded in 96-well plates at a density of 1000-5000 cells/well. The cells were plated with serial dilutions of either naked muDS6 or muDS6-DM1 immunoconjugate in 200 μl of culture media. The samples were run in triplicate. The cells and antibody/conjugate mixtures were then incubated for 2-7 d, at which time cell viability was assessed by an MTT ([3(4,5-dimethylthiazol-2-yl)-2,5-diphenyl tetrazolium bromide)] assay. MTT (50 μg/well) was added to the culture supernatant and allowed to incubate for 3-4 h at 37° C. The media was removed and the MTT formazan was solubilized in DMSO (175 μl/well). The absorbance at 540-545 nm was measured. […] The wells with the highest concentrations of conjugate contained no viable cells as compared to naked antibody which had no effect (FIGS. 21 and 24).
(In general: Tetrazolium assays rely on reduction of a dye to a coloured formazan, in cell work by metabolically active cells.)

For the next series, the system named is BT-20 cells. As to the kind of experiment: MTT cell viability assay. It is filed as cell-based, human. As to conditions: highest conjugate concentration (32 nM). On the procedure:
as §1

For another series, the system named is HPAC cells. The series can be described thus: MTT cell viability assay. In kind it is cell-based, human. As to conditions: highest conjugate concentration (32 nM). As to the method: as §1
In another series the test system is HeLa tumor xenografts. As to the kind of experiment: Subcutaneous HeLa xenograft efficacy study. In kind it is in vivo, SCID mice. On the procedure:
OVCAR5 (FIG. 26A and FIG. 26B), TOV-21 G (FIG. 26C and FIG. 26D), HPAC (FIG. 26E and FIG. 26F), and HeLa (FIG. 26G and FIG. 26H) cells were inoculated on day 0, and immunoconjugate treatments were given on day 6 and 13. PBS control animals were euthanized once tumor volumes exceeded 1000 mm^3. The conjugate was given at a dose of 600 μg/kg DM1, corresponding to an antibody concentration 27.7 mg/kg. Tumor volume (FIG. 26A, FIG. 26C, FIG. 26E, and FIG. 26G) and body weight (FIG. 26B, FIG. 26D, FIG. 26F, and FIG. 26H) of the mice were monitored during the course of the study.
muDS6-DM 1 activity was further tested on a panel of subcutaneous xenograft models (see FIG. 26). […] OVCAR5 cells and TOV-21 G are ovarian tumor cell lines; HPAC is a pancreatic tumor cell line; HeLa is a cervical tumor cell line. OVCAR5 and TOV-21G cells have low surface CA6 expression; HeLa cells have an intermediate level of surface CA6 expression; HPAC cells have a high CA6 density of surface expression. TOV-21G and HPAC cells are maytansine sensitive; OVCAR5 and HeLa cells are 2-7-fold less maytansine sensitive.
The 4 cell-lines were grown in vitro, collected, and 1×10^7 cells in a 100 μL of serum free medium were injected under the right shoulder of each mouse (6 mice per model) and allowed to grow for 6 days to an average tumor volume of 57.6±6.7 and 90.2±13.4 mm^3 for the test and control groups respectively of OVCAR5, 147.1±29.6 and 176.2±18.9 mm^3 for the test and control groups respectively of HPAC, 194.3±37.2 and 201.7±71.7 mm^3 for the test and control groups respectively of HeLa, and 96.6±22.8 and 155.6±13.4 mm^3 for the test and control groups respectively of TOV-21G, at which time drug treatment was initiated. For each model three control mice were treated with two weekly doses of PBS and three test mice were treated with two weekly doses of conjugate (600 μg/kg DM1) intravenously. Toxic responses were monitored daily during the treatment and tumor volumes and body weights were monitored throughout the study. […]

Series [1] concerns Caov-3 cells. As to the kind of experiment: MTT cell viability assay. It is filed as cell-based, human. On the procedure: as §1
For series [2], the system named is Caov-3 cells. As to the kind of experiment: Indirect cell viability assay with anti-mouse IgG (H+L) DM1 conjugate. It is filed as cell-based, human. Particulars: without secondary conjugate.
Where [3] appears, read: 150 μg/kg DM1 i.v. daily for 5 days.
Setting [4] is: 600 μg/kg DM1, two weekly doses.

B1: DS6-DM1: muDS6 antibody modified with SPP and conjugated to the maytansinoid DM1 (conjugate)
VH: QAYLQQSGAELVRSGASVKMSCKASGYTFTSYNMHWVKQTPGQGLEWIGYIYPGNGATNYNQKFKGKATLTADPSSSTAYMQISSLTSEDSAVYFCARGDSVPFAYWGQGTLVTVSA
VL: QIVLTQSPAIMSASPGEKVTITCSAHSSVSFMHWFQQKPGTSPKLWIYSTSSLASGVPARFGGSGSGTSYSLTISRMEAEDAATYYCQQRSSFPLTFGAGTKLELKR
On to B1, for which the figures for the body weight entry in the series on KB tumor xenografts (150 μg/kg DM1) and in the series with HeLa tumor xenografts (setting [4]) were “no weight loss” and “no weight loss was observed”, respectively. In addition, the “time to complete tumor regression after treatment initiation” value is listed as 18 days in the series on KB tumor xenografts (setting [3]) and 14 days with KB tumor xenografts (225 μg/kg DM1 i.v. daily for 5 days). The tumor delay result in the series with KB tumor xenografts (setting [3]) was “approximately 70 days”. Also, in the series with KB tumor xenografts (225 μg/kg DM1, no tumor recurrence at day 120), the treatment outcome was “cures”. Also, the “visible signs of toxicity” value in the series with KB tumor xenografts (during the 5-day treatment course, 150 and 225 μg/kg DM1) is “no visible signs of toxicity”. Besides, the cells still viable result in the series with OVCAR5 cells, in the series with BT-20 cells and with HPAC cells was “over 50%” in each case. The “tumor status at day 61” value in the series with HeLa tumor xenografts (setting [4]) is “tumor-free”. The tumor regression entry in the series with HeLa tumor xenografts (600 μg/kg DM1 i.v., two weekly doses) is “complete tumor regression in all mice”.

B2: DS6: murine anti-CA6 monoclonal antibody DS6 (ATCC deposit number PTA-4449) (antibody, V domains shown)
VH: B1 VH
VL: B1 VL
For B2, in the series with Caov-3 cells [1], the “effect of naked antibody on cell viability” value was “no effect”. Also, in the series with Caov-3 cells [2], the “activity of naked antibody in cell cultures” value was “no proliferative or growth inhibitive activity”.
